Results: patent US20090203610A1, “METHODS OF TREATING OBESITY OR DIABETES USING NT-4/5” (RINAT NEUROSCIENCE CORPORATION, priority 2004, published 2009)

Columns and labels:
[1] = test system: NONcNZO-10 polygenic obese mice; test: Pegylated NT-4/5 cysteine mutant on body weight, food intake, glucose, triglyceride in NONcNZO-10 mice (Example 6); assay type: in vivo; conditions: 2 mg/kg/week injection
human TrkB = target: T1, human TrkB (Homo sapiens, UniProt Q16620); test: Receptor tyrosine phosphorylation (KIRA) in TrkB expressing cell line; assay type: cell-based
T1 construct: expressed in transfected cells
T1 sequence (Q16620 32-822): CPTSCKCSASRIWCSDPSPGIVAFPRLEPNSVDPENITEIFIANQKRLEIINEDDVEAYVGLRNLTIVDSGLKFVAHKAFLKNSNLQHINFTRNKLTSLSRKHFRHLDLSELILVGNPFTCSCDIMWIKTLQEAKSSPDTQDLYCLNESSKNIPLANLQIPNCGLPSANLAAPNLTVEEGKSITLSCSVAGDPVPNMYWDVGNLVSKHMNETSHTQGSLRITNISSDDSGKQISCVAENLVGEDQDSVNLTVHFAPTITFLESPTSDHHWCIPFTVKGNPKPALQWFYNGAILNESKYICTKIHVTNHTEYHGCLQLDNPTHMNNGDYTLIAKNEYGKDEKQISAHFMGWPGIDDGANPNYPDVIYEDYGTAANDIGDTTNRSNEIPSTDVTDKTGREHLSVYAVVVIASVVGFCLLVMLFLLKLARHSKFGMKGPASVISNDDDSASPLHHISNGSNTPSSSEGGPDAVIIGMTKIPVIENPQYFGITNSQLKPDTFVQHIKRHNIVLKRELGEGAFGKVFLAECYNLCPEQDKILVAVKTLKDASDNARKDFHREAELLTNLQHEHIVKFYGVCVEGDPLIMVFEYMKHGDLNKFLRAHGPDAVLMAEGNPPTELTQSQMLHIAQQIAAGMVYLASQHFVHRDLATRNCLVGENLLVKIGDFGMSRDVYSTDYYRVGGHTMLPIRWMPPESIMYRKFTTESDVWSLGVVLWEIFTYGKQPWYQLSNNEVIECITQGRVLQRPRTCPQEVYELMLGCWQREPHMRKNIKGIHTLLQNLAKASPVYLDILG
Excerpt: Method of making pegylated NT-4/5 (S50C): The native form of NT-4/5 used in this study was produced according to the method described in U.S. Pat. No. 6,184,360. A site-directed pegylated NT-4/5 was also produced. The structure of NT-4/5 in complex with domain 5 of TrkB was examined to find amino acid side chains that would be surface available and unlikely to interfere with natural disulfide bonds and also unlikely to interfere in either the interactions between the monomer subunits of NT-4/5 or the TrkB domain 5 to create a PEG attaching site. […] […] Mutant proteins were expressed in E. coli, solubilized, extracted, purified and refolded as the native NT-4/5. To pegylate the refolded NT4-S50C, NT4-Q105C, and NT-4-E67C, first a mild reduction with 0.1 mM DTT (dithiothreitol) was performed. Excess DTT was removed by dialysis against 50 mM sodium acetate at pH 6, then a 5 molar excess of mPEG-maleimide (M. W. of 10,000 Da, SunBio, Inc., South Korea) was incubated with the protein at 37° C. for several days with gentle agitation. Pegylated protein, non-pegylated protein and unreacted PEG were separated via ion exchange or size exclusion chromatography.
(§1) Assays of TrkB specific activation by pegylated NT-4/5: Stable cell lines expressing human TrkA, TrkB or TrkC were used to determine the functional activity, i.e. receptor phosphorylation, of NT-4/5 and pegylated NT-4/5 as previously described (Sadick et al. Experimental Cell Research 234: 354-361, 1997).
(§2) Assays of TrkB specific activation by pegylated NT-4/5: Stable cell lines expressing human TrkA, TrkB or TrkC were used to determine the functional activity, i.e. receptor phosphorylation, of NT-4/5 and different forms of pegylated NT-4/5 as previously described (Sadick et al. Experimental Cell Research 234: 354-361, 1997).

human TrkA = target: T2, human TrkA (Homo sapiens, UniProt P04629); test: Receptor tyrosine phosphorylation in trkA expressing cell line; assay type: cell-based
T2 construct: expressed in transfected cells
T2 sequence (P04629 33-796): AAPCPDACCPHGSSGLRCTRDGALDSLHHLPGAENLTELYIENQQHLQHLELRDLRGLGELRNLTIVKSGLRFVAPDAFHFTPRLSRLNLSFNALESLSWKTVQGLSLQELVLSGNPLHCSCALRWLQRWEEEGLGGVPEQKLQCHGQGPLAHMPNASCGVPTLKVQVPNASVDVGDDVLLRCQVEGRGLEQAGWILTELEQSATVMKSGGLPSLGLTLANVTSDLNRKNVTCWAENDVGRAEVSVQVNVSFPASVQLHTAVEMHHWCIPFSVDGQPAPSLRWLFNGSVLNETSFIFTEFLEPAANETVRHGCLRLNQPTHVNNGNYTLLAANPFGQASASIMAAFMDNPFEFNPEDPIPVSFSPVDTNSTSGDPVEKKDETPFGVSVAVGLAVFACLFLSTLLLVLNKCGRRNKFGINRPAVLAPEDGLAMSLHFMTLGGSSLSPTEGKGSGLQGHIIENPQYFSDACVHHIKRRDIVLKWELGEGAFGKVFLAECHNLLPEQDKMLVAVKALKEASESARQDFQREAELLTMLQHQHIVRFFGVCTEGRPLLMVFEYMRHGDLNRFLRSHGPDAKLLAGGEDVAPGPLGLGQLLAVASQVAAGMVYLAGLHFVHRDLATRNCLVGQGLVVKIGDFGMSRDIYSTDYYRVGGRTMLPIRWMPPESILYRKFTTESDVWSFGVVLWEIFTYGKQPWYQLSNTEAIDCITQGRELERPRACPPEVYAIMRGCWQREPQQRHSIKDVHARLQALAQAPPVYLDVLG
Excerpt: as §1, §2

db/db mice [2] = test: Body weight after single injection of NT-4/5 or pegylated NT-4/5 in db/db mice (Example 7, Table 21); assay type: in vivo; conditions: for Body weight expressed in percentage of baseline value: single 5 mg/kg dose on day 1; for body weight growth: single subcutaneous injection, 5 mg/kg, significantly
Experimental: (§3) Test animals: 30 female db/db mice at 7 weeks of age weighing in the range of 27-34 g were used in this study.
(§4) Administration of NT-4/5 and pegylated NT-4/5: Wild type NT-4/5 was obtained from Genentech Inc. The mice were divided into 5 groups of equivalent body weight distribution (6 mice per group). Each group received on the first day (day 1) of the study one and the only dose of either vehicle, 5 mg/kg of NT-4/5 produced as described above, 5 mg/kg of 2PEG-NT4-G1S, or 5 mg/kg of 1PEG-NT4-G1S. 2PEG-NT4-G1S represents one PEG molecule was conjugated to each NT-4/5 monomer in a NT-4/5 dimer, and 1PEG-NT4-G1S represents one PEG molecule was conjugated to only one monomer of the NT-4/5 dimer. 2PEG-NT4-G1S and 1PEG-NT4-G1S were separated by ion exchange. Four days before starting the treatment (day −4), blood samples were collected from the mice as described previously for the determination of baseline levels of serum glucose. On day 4 after the treatment started, blood samples were collected again to determine serum glucose level. Body weight and food intake were monitored 5 days a week through out the entire study.

db/db mice [3] = test: Daily food intake after single injection of NT-4/5 or pegylated NT-4/5 in db/db mice (Example 7, Table 22); assay type: in vivo; conditions: for Daily food intake: single s.c. injection 5 mg/kg, db/db mice, mean; for food intake: single subcutaneous injection, 5 mg/kg, significantly
Experimental: as §3, §4

db/db mice [4] = test: Non-fasting serum glucose after single injection in db/db mice (Example 7); assay type: in vivo; conditions: after 4 days; single subcutaneous injection, 5 mg/kg
Experimental: as §3, §4

human TrkC = target: T3, human TrkC (Homo sapiens, UniProt Q16288); test: Receptor tyrosine phosphorylation in trkC expressing cell line; assay type: cell-based
T3 construct: expressed in transfected cells
T3 sequence (Q16288 32-839): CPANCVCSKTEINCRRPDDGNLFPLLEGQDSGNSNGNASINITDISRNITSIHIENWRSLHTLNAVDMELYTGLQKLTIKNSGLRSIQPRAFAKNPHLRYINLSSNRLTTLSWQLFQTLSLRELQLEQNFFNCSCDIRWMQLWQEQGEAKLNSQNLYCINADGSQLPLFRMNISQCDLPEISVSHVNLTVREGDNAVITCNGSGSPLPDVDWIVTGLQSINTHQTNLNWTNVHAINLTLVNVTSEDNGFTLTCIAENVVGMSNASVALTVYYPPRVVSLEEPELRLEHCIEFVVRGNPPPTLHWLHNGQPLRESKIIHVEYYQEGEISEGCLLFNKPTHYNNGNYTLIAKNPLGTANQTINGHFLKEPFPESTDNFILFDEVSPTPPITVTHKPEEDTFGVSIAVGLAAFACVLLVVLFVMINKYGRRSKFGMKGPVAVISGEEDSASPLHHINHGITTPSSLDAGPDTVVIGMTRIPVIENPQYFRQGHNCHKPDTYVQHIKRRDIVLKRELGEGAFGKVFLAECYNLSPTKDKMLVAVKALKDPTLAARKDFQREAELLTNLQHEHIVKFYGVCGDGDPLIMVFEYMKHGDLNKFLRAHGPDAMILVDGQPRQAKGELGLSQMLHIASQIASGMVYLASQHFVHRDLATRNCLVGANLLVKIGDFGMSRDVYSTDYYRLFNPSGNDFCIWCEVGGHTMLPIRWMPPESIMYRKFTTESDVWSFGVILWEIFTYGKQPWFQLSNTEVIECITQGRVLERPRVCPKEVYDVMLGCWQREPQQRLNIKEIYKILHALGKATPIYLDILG
Excerpt: as §1, §2

[5] = Serum half life after single subcutaneous dose in db/db mice (Example 7); assay type: in vivo
Excerpt: In addition, pegylated NT-4/5 has extended half life in vivo.

B1: Pegylated mutant NT-4/5 (Q105C): NT-4/5 with residue 105 changed to cysteine, pegylated with mPEG-maleimide (10,000 Da) (conjugate)
chain: GVSETAPASRRGELAVCDAVSGWVTDRRTAVDLRGREVEVLGEVPAAGGSPLRQYFFETRCKADNAEEGGPGAGGGGCRGVDRRHWVSECKAKQSYVRALTADACGRVGWRWIRIDTACVCTLLSRTGRA
With B1 the “in vivo activity (body weight, food intake, glucose or triglyceride)” value [1] was “inactive in vivo” and the “receptor tyrosine phosphorylation of TrkB-expressing cell line” value (human TrkB) was “preserved TrkB receptor agonist activity”.

B2: 1PEG-NT4-G1S: NT4-G1S dimer with one 20 kDa PEG molecule conjugated to only one monomer (conjugate)
chain 1: SVSETAPASRRGELAVCDAVSGWVTDRRTAVDLRGREVEVLGEVPAAGGSPLRQYFFETRCKADNAEEGGPGAGGGGCRGVDRRHWVSECKAKQSYVRALTADAQGRVGWRWIRIDTACVCTLLSRTGRA
chain 2: SVSETAPASRRGELAVCDAVSGWVTDRRTAVDLRGREVEVLGEVPAAGGSPLRQYFFETRCKADNAEEGGPGAGGGGCRGVDRRHWVSECKAKQSYVRALTADAQGRVGWRWIRIDTACVCTLLSRTGRA
For B2, the “receptor tyrosine phosphorylation of trkA-expressing cell line” value (human TrkA) was “did not increase receptor tyrosine phosphorylation”, the “Body weight expressed in percentage of baseline value” (shortened to “Body weight expressed in percentage”) (db/db mice [2]; Day 1) was 100.0 % of baseline and the “Body weight expressed in percentage” value (db/db mice [2]; Day 2) was 98.2 % of baseline. For the same molecule, the “Body weight expressed in percentage” value (db/db mice [2]; Day 3) was 100.0 % of baseline, the “Body weight expressed in percentage” value (db/db mice [2]; Day 4) was 103.0 % of baseline and the “body weight growth” value (db/db mice [2]) was “reduced the body weight growth”. The Daily food intake (db/db mice [3]; Day 1) was 6.8 g/day, the Daily food intake (db/db mice [3]; Day 2) was 5.3 g/day and the Daily food intake (db/db mice [3]; Day 3) was 6.7 g/day. The Daily food intake (db/db mice [3]; Day 4) was 6.3 g/day, the “food intake” value (db/db mice [3]) was “reduced” and the “non-fasting serum glucose levels” value (db/db mice [4]) was “showed a tendency to reduce”. For the same molecule, the “receptor tyrosine phosphorylation of trkC-expressing cell line” value (human TrkC) was “did not increase receptor tyrosine phosphorylation” and the “receptor tyrosine phosphorylation of TrkB-expressing cell line” value (human TrkB) was “increased receptor tyrosine phosphorylation”.

B3: 2PEG-NT4-G1S: NT4-G1S dimer with one 20 kDa PEG molecule conjugated to each NT-4/5 monomer (conjugate)
chain: SVSETAPASRRGELAVCDAVSGWVTDRRTAVDLRGREVEVLGEVPAAGGSPLRQYFFETRCKADNAEEGGPGAGGGGCRGVDRRHWVSECKAKQSYVRALTADAQGRVGWRWIRIDTACVCTLLSRTGRA
For B3, the “receptor tyrosine phosphorylation of trkA-expressing cell line” value (human TrkA) was “did not increase receptor tyrosine phosphorylation”, the “absolute protein levels relative to native NT-4/5” value ([5]; at any given time point) was “several orders of magnitude higher” and the serum half life ([5]; single subcutaneous dose of 4 mg/kg in db/db mice, estimated) was 12.7 to 16 h. For the same molecule, the “Body weight expressed in percentage” value (db/db mice [2]; Day 1) was 100.0 % of baseline, the “Body weight expressed in percentage” value (db/db mice [2]; Day 2) was 97.3 % of baseline and the “Body weight expressed in percentage” value (db/db mice [2]; Day 3) was 98.4 % of baseline. The “Body weight expressed in percentage” value (db/db mice [2]; Day 4) was 100.1 % of baseline, the “body weight growth” value (db/db mice [2]) was “reduced the body weight growth” and the Daily food intake (db/db mice [3]; Day 1) was 6.7 g/day. For the same molecule, the Daily food intake (db/db mice [3]; Day 2) was 5.3 g/day, the Daily food intake (db/db mice [3]; Day 3) was 5.8 g/day and the Daily food intake (db/db mice [3]; Day 4) was 6.2 g/day. For the same molecule, the “food intake” value (db/db mice [3]) was “reduced”, the “non-fasting serum glucose levels” value (db/db mice [4]) was “showed a tendency to reduce” and the “receptor tyrosine phosphorylation of trkC-expressing cell line” value (human TrkC) was “did not increase receptor tyrosine phosphorylation”. The “receptor tyrosine phosphorylation of TrkB-expressing cell line” value (human TrkB) was “increased receptor tyrosine phosphorylation”.
